“Also recorded” adds a separate entry of the source. Blank lines part the entries; values can stand above or below the molecule they belong to. Ends that are not written are not given here.
Legend:
human FPRL1 = molecular target: T1, human FPRL1 (Homo sapiens, UniProt P25090); experiment: Calcium flux in FPRL1-L1.2 transfectants; type: cell-based; settings: for Designation and FPRL1 Activity: qualitative rating high, moderate, low, see Example 9; for Notes: activity: qualitative rating, Table 6; for calcium release / mobilization: FPRL1 expressing L1.2 cells
T1 construct: Full length cDNA encoding FPRL1 was cloned, using the polymerase chain reaction (PCR), from genomic DNA isolated from undifferentiated HL-60 cells; expressed in transfected cells; linearized FPRL1/pcDNA3.1, electroporation
T1 sequence (P25090 1-351): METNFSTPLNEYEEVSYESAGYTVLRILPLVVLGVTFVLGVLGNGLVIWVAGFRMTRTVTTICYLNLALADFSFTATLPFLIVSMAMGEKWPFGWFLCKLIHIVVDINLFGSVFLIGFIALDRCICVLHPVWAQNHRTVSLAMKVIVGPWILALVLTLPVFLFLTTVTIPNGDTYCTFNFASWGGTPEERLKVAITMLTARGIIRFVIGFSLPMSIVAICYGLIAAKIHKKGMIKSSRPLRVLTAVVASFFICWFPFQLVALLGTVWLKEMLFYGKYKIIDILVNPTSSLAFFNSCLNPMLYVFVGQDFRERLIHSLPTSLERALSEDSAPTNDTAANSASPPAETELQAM
Protocol: (§1) Ca^2+ mobilization responses were performed using the intracellular ratiometric fluorescent dye, lndo-1. Cells were loaded with Indo-1/AM (3 μM; Molecular Probes, Eugene, Oreg.) in culture medium (45 min, 20° C., 10^7 cells/ml). After dye loading, cells were washed once with 10 ml PBS) and resuspended at 10^6 cell/ml in HBSS containing 1% FBS. Cytosolic [Ca^2+] release was determined using excitation at 350 nm using a Photon Technology International fluorimeter (excitation at 350 nm, ratioed dual emission at 400 and 490 nm).
The functional activities of CKβ8-1 (25-116) were investigated in human FPRL1-L1.2 transfectants and in native L1.2 cells. Stable expression of formyl peptide-like receptor 1 (FPRL1) in L.1.2 cell was obtained as follows. Full length cDNA encoding FPRL1 was cloned, using the polymerase chain reaction (PCR), from genomic DNA isolated from undifferentiated HL-60 cells. […] Twenty micrograms of the FPRL1/pcDNA3.1 construct were linearized by digestion with Bsm1 (New England Biolabs, Beverly, Mass.) and used to transfect the murine B cell line L1.2 as follows. Twenty five million cells were washed twice and resuspended in 0.8 ml of PBS. The cells were incubated for 10 min at room temperature with the linearized FPRL/pcDNA3.1 construct DNA and transferred to a 0.4-cm cuvette, and a single electroporation pulse was applied at 250 V, 960 μF. Electroporated cells were incubated for 10 min at room temperature and transferred to culture at 37° C. in RPMI supplemented with 10% FCS. Geneticin (G418) was added to a final concentration of 800 μg/ml 48 h posttransfection and the cells plated into 96-well plates at 25,000 cells/well. After 2-3 weeks under drug selection, stable geneticin-resistant FPLR1 expressing cells were assessed for their ability to mobilize Ca^++ in response to SHAAGtide or CKbeta 8-1 at concentrations of 1 to 1000 nM.
A calcium flux test was performed on these transfectants using the method described in Example 1.
Stable expression of human FPRL1 in L1.2 cells was obtained as in Example 6. Calcium flux tests were conducted on the transfectants using the method described in Example 1. Chemokines (CKβ8(1-99), CKβ8(25-99), CKβ8-1(1-116) and CKβ8-1(25-116), were prepared as in Example 1. W peptides 1 and 2 were obtained as in Example 6. In addition, and the following SHAAGtide sequences and truncated variants (prepared as in Example 8) were tested:
All ligands were added in a dose response manner and the peak calcium flux response determined.

CCR1 = molecular target: T2, CCR1 (Homo sapiens, UniProt P32246); experiment: Intracellular calcium flux in HEK293-CCR1 transfectants; type: cell-based; settings: 100 nM; for maximal receptor stimulation compared with leukotactin: same concentration of leukotactin; for calcium flux: HEK293-CCR1 transfectants
T2 construct: full length cDNA encoding CCR1 was cloned by the polymerase chain reaction (PCR) from genomic DNA isolated from human peripheral blood cells; expressed in transfected cells; pcDNA3.1 vector)
T2 sequence (P32246 1-355): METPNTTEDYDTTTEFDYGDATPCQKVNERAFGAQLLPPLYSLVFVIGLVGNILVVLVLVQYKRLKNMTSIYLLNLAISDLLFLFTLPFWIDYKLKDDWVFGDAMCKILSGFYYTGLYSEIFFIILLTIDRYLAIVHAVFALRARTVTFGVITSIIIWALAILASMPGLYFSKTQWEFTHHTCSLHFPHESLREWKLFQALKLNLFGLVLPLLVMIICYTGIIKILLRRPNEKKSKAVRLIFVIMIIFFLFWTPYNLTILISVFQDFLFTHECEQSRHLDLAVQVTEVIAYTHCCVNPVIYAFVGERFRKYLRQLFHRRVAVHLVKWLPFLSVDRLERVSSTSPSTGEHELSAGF
Protocol: The human recombinant chemokines, leukotactin, three known CKβ8 variants CKβ8(1-99), CKβ8(25-99), CKβ8-1(1-116) and a novel NH2-terminal truncated form of CKβ8-1, CKβ8-1 (25-116) were obtained from R&D Systems (Minneapolis, Minn.). CKβ8-1(25-116) was compared with the other three variants for the ability to elicit an intracellular calcium mobilization in stable human CCR1 transfected […] cells. Human HEK293-CCR1 cells were prepared using Fugena 6 (Roche, Ind.) following the manufacturer's protocol. The HEK-293 cell lines were maintained in DMEM with 10% FBS supplemented with 800 μg/ml G-418.
Stable expression of human chemokine receptor CCR1 in HEK293 cell was obtained as follows: full length cDNA encoding CCR1 was cloned by the polymerase chain reaction (PCR) from genomic DNA isolated from human peripheral blood cells. The PCR product was cloned into pcDNA3.1 (Invitrogen, Carlsbad, Calif.) using standard molecular cloning procedures and completely sequenced to confirm identity.
Two micrograms of the CCR1/pcDNA3.1 construct were used to transfect the HEK293 cells as follows. FuGENE:DNA complex was prepared by mixing 6.0 μl FuGENE 6 reagent (Roche Molecular Biochemicals, Calif.) and 2 μg CCR1/pcDNA3.1 in 100 ul of serum-free medium (Hyclone, Colo.). After incubating for 30 minutes at room temperature, the complex was added to a 60 mm culture plate containing 0.5-1×10^6 cells in 10 ml DMEM medium supplemented with 10% FBS (Hyclone, Colo.). After mixing, the cells were returned to the incubator to culture at 37° C. for two days. At 48 hours post-transfection, Genetinin (G418) (Mediatech, Herndon, Va.) was added at a final concentration of 800 ug/ml. The cells were then plated in 96-well plates at a concentration of 20,000 cells/well. After 2-3 weeks under G418 selection, stable geneticin-resistant CCR1 expressing cells were assessed for their ability to mobilize calcium in response to MIP-1α at a concentration of 1-500 nM.
as §1
With HEKCCR1-293 transfectants, CKβ8-1(25-116) and the other CKβ8 variants induced a rapid calcium flux at 100 nM.

- Designation and FPRL1 Activity (human FPRL1): high
- Notes: activity (human FPRL1): high
Molecule: MLWRRKIGPQMTLSHAAG [SEQ ID NO: 1]

- Designation and FPRL1 Activity (human FPRL1): high
- Notes: activity (human FPRL1): high
Molecule: MLWRRKIGPQMTLSHAAY [SEQ ID NO: 6]

Further lines, the molecule ahead of its results:

B1: CKβ8-1(25-116): novel NH2-terminal truncated form of CKβ8-1, SEQ ID NO: 16, human recombinant chemokine (protein, listed as Homo sapiens)
chain: MLWRRKIGPQMTLSHAAGFHATSADCCISYTPRSIPCSLLESYFETNSECSKPGVIFLTKKGRRFCANPSDKQVQVCMRMLKLDTRIKTRKN
- maximal receptor stimulation compared with leukotactin (CCR1): equivalent to those obtained with the same concentration of the CCR1 agonist, leukotactin
- calcium flux (CCR1): high calcium response
- calcium release / mobilization (human FPRL1): stimulated calcium release
- calcium release / mobilization (human FPRL1; listed as CKβ8(25-116)): induced calcium mobilization

B2: CKβ8-1(1-116): alternatively spliced form of CKβ8, 116 amino acids, human recombinant chemokine (protein, listed as Homo sapiens)
chain: RVTKDAETEFMMSKLPLENPVLLDMLWRRKIGPQMTLSHAAGFHATSADCCISYTPRSIPCSLLESYFETNSECSKPGVIFLTKKGRRFCANPSDKQVQVCMRMLKLDTRIKTRKN
- calcium flux (CCR1): lower
- calcium release / mobilization (human FPRL1): no activity
- calcium release / mobilization (human FPRL1; listed as CKβ8(1-116)): did not give significant mobilization

B3: CKβ8(25-99): known truncated CKβ8 variant, human recombinant chemokine from R&D Systems (protein, listed as Homo sapiens)
chain: RFHATSADCCISYTPRSIPCSLLESYFETNSECSKPGVIFLTKKGRRFCANPSDKQVQVCMRMLKLDTRIKTRKN
- maximal receptor stimulation compared with leukotactin (CCR1): equivalent to those obtained with the same concentration of the CCR1 agonist, leukotactin
- calcium flux (CCR1): high calcium response; also recorded: lower
